Converted amounts (≈) assume the structure as drawn. Blank lines part the entries; values can stand above or below the molecule they belong to.
Columns and labels:
trypsin [1] = target: T1, trypsin (Bos taurus, UniProt P00760); settings: neutral medium (pH 7.0) and toluene
T1 sequence (P00760 24-246): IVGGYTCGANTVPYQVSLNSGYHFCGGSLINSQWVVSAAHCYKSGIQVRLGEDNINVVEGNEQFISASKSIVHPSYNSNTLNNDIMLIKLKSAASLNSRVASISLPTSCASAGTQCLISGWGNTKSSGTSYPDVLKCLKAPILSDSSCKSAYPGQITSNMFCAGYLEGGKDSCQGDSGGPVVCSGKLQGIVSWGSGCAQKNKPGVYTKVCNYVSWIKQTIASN

trypsin [2] = target: T1, trypsin; assay: Trypsin-catalyzed polycondensation, seven days; format: biochemical, bovine; set-up: purchased Sigma-Aldrich #T4665; host or cells: bovine pancreas; settings: 25° C.
trypsin [3] = target: T1, trypsin; assay: Trypsin-catalyzed hydrolysis and condensation of alkoxysilanes; format: biochemical, bovine; set-up: purchased Sigma-Aldrich #T4665; host or cells: bovine pancreas
[4] = Estimated solubility in water
trypsin [5] = target: T1, trypsin; assay: Proteinaceous inhibition of the trimethylethoxysilane reaction; format: biochemical, bovine; set-up: purchased Sigma-Aldrich #T4665; host or cells: bovine pancreas; settings: 25° C., three hours, pH 7.0
Protocol: A proteinaceous inhibition study was conducted to investigate the role of the enzymatic active site in the hydrolysis and condensation of trimethylethoxysilane. […] .

trypsin [6] = target: T1, trypsin; assay: Standard enzymatic activity assay of inhibited trypsin; format: biochemical, bovine; set-up: purchased Sigma-Aldrich #T4665; host or cells: bovine pancreas; settings: excess inhibitor (4:1 BBI, 2:1 PCI to protease mole ratio), pH 7.0, two hours
Protocol: Since α-chymotrypsin was inhibited by PCI, the presence of trypsin in α-chymotrypsin was confirmed. […] .
A proteinaceous inhibition study was conducted to investigate the role of the enzymatic active site in the hydrolysis and condensation of trimethylethoxysilane.

α-chymotrypsin = target: T2, α-chymotrypsin (Bos taurus, UniProt P00766); assay: Standard enzymatic activity assay of inhibited α-chymotrypsin; format: biochemical, bovine; settings: excess inhibitor (4:1 BBI to protease mole ratio), pH 7.0, two hours
T2 construct: purchased Sigma-Aldrich #C-4129; host or cells: bovine pancreas
From the text: Since α-chymotrypsin was inhibited by PCI, the presence of trypsin in α-chymotrypsin was confirmed. In addition, condensation was not observed despite the partial inhibition of α-chymotrypsin with BBI.

[7] = Enzyme-catalyzed condensation study after six days; format: biochemical
From the text: This study was directed to an enzyme screen with […] in order to evaluate the ability of various enzymes to catalyze the formation of a siloxane bond. Based on the similarities of the proteins isolated from the Tethya aurantia marine sponge (silicatein), Cylindrotheca fusiformis diatom (silaffin), and Equisetum telmateia plant (biopolymer extract), a series of lipases and serine-proteases were selected as homologous proteolytic enzymes. […] […]. In this study, control reactions were defined as non-enzymatic reactions. Specifically, experiments conducted in the absence of a protein were defined as negative control reactions. Proteinaceous molecules such as bovine serum albumin and porcine γ-globulins were used to study non-specific protein catalysis.
[…]. […] (˜200 mg/mL).

[8] = Temperature and pH studies of the trypsin-catalyzed condensation of trimethylsilanol; format: biochemical
Protocol: The effect of temperature on trypsin as well as the enzyme-catalyzed condensation reaction was studied. Prior to reaction, buffered aqueous solutions (pH 7.0) of trypsin were stirred and equilibrated at set temperatures in a thermostated water bath (+/−0.1° C.) for 20 minutes. […] In the thermal denaturation experiments, trypsin was boiled for 20 minutes and three hours in 50 mM Tris-HCl buffered Milli-Q water (pH 7.0), independently, before performing the condensation reaction at 25° C.
. […] Based on the chromatographic data, the enzyme-catalyzed condensation reaction was dependent on the pH. The silanol condensation reaction was optimum at pH 7.0.

[9] = Hydrolysis and condensation of trimethylethoxysilane by different sources of trypsin; effect of calcium; format: biochemical; settings: 20 mM CaCl2, pH 7.0, 25° C., three hours
From the text: Although various sources (e.g. mammalian, fish) of trypsin are similar (e.g. tertiary structure), their selectivity and activity may be different. […] . The reaction products were isolated and quantitatively analysed by GC (FIG. 24).
Calcium activation of trypsin induces changes in the tertiary structure of the enzyme. […] . […] The reaction products were isolated and quantitatively analysed by GC (FIG. 25).

[10] = Protease-catalyzed condensation study after three hours; format: biochemical; settings: pH 7.0, three hours
Protocol: In comparison to control reactions, the ability of the proteases detailed in Table 3 to catalyse siloxane condensation was screened with […]. Comparatively, the original reactions conducted in the enzyme-catalysed condensation study were performed for six days versus three hours in this study.
Prior to reaction, the glass vials were silylated. […].
TLCK inhibits trypsin by alkylating the histidine residue in the catalytic triad.

Molecule: C[Si](C)(C)O[Si](C)(C)C [hexamethyldisiloxane]
trypsin-catalyzed hydrolysis of the siloxane bond (reverse reaction) (trypsin [1]): not observed to catalyze the hydrolysis of a siloxane bond

Molecule: CCO[Si](C)(OCC)OCC [methyltriethoxysilane]
trypsin-catalyzed polycondensation (result in words) (trypsin [2]): promoted the complete hydrolysis and, subsequent, polycondensation

Molecule: CCO[Si](C)(C)C [trimethylethoxysilane]
trypsin-catalyzed hydrolysis and condensation (result in words) (trypsin [3]; 4:1 monomer to enzyme weight ratio, 25° C., three hours): preferentially catalyze the hydrolysis and condensation | relative turnover number of hydrolysis (trypsin [3]; 10° C.): 0.53 s⁻¹ | condensed in the presence of trypsin (trypsin [3]; pH 7.0, 25° C., three hours): 84% | hydrolysed in the presence of trypsin (trypsin [3]; pH 7.0, 25° C., three hours): 100% | solubility [4]: 1000 µg/mL (≈ 8.46 mM)

decrease of percent hydrolysis of trimethylethoxysilane with inhibited trypsin (trypsin [5]): 24% | inhibition of trypsin (trypsin [6]): 98% | inhibition of α-chymotrypsin (α-chymotrypsin): 63%
B1: BBI: trypsin-chymotrypsin inhibitor from soybean, 71 amino acids (protein, UniProt P01055 40-110, looked up)
Bowman-Birk type proteinase …: DDESSKPCCDQCACTKSNPPQCRCSDMRLNSCHSACKSCICALSYPAQCFCVDITDFCYEPCKPSEDDKEN

decrease of percent hydrolysis of trimethylethoxysilane with inhibited trypsin (trypsin [5]): 6% | inhibition of trypsin (trypsin [6]): 91%
B2: PCI: trypsin inhibitor from Glycine max, 181 amino acids (protein, UniProt P01070 25-205, looked up)
Trypsin inhibitor A: DFVLDNEGNPLENGGTYYILSDITAFGGIRAAPTGNERCPLTVVQSRNELDKGIGTIISSPYRIRFIAEGHPLSLKFDSFAVIMLCVGIPTEWSVVEDLPEGPAVKIGENKDAMDGWFRLERVSDDEFNNYKLVFCPQQAEDDKCGDIGISIDHDDGTRRLVVSKNKPLVVQFQKLDKESL

B3: trypsin: bovine pancreatic trypsin, commercial preparation (protein, UniProt P00760 24-246, looked up)
Serine protease 1: T1 sequence (P00760 24-246)
condensation of trimethylsilanol, Buffered pH 7 ([7]; 50 mM Tris-HCl pH 7.0, 25° C.): ✓ (determined to catalyse the condensation of greater than ten times more trimethylsilanol than the negative control reactions; as well as, greater than three or ten times more trimethylsilanol than the BSA reactions in organic and aqueous media, respectively) | condensation of trimethylsilanol, Dry Toluene ([7]; dry toluene, 25° C.): ✓ (determined to catalyse the condensation of greater than ten times more trimethylsilanol than the negative control reactions; as well as, greater than three or ten times more trimethylsilanol than the BSA reactions in organic and aqueous media, respectively) | condensation of trimethylsilanol, Water ([7]; water, 25° C.): ✓ (determined to catalyse the condensation of greater than ten times more trimethylsilanol than the negative control reactions; as well as, greater than three or ten times more trimethylsilanol than the BSA reactions in organic and aqueous media, respectively) | condensation of trimethylsilanol, Wet Toluene ([7]; wet toluene, 25° C.): ✓ (determined to catalyse the condensation of greater than ten times more trimethylsilanol than the negative control reactions; as well as, greater than three or ten times more trimethylsilanol than the BSA reactions in organic and aqueous media, respectively) | optimum pH of the silanol condensation reaction ([8]; 25° C., three hours, pH 4.0 to pH 10.0): 7.0 | optimum temperature of the condensation reaction ([8]; pH 7.0, three hours): approximately 25 °C | increase of yield of the condensation of trimethylsilanol with calcium [9]: did not change | condensation of trimethylsilanol (result in words) [10]: preferentially catalyzed the condensation

— patent US7455998B2, “Methods for forming structurally defined organic molecules” (Dow Corning Corporation, priority 2004, dated 2008)
